Measured values taken from US7172865B2, “Rapid and sensitive assay for the detection and quantification of coregulators of nucleic acid binding factors” (Saint Louis University, priority 2001, dated 2007).
“Also recorded” adds a separate entry of the source.

How the values were obtained:
[1] = tested on: TRP2/TRP3 and TRP1/TRP4 duplexes; assay: two-color simultaneous detection, fluorescein-labeled TrpR constructs; format: binding; settings: excitation 490 nm, one protein only
Source text: The compatibility of the assays described in the instant invention with a variety of fluorescence probes emitting at different wavelengths allows for the designing of variations in which two or more proteins may be detected simultaneously. Nucleic acid constructs specific for each of the proteins to be detected may be labeled with probes that emit light at different wavelengths. In this example, the reaction mixture contained nucleic acid constructs labeled with 7-diethylaminocoumarin-3-carboxylic acid for detecting CAP protein (described in EXAMPLE 2) and nucleic acid constructs labeled with fluorescein for detecting TrpR protein (described in EXAMPLE 6). Specifically, 100 nM CAP5/CAP3, 120 nM CAP1/CAP4, 100 nM TRP2/TRP3, and 120 nM TRP1/TRP4 duplexes were present in the reaction mixture.
The fluorescence spectra with the excitation at 433 nm (excitation of 7-diethylaminocoumarin-3-carbo acid, FIG. 17A) and with the excitation at 490 nm (excitation of fluorescein, FIG. 17B) were recorded in the absence of the proteins (curves 1), in the presence of CAP only (curves 2), in the presence of TrpR only (curves 3), and in the presence of both CAP and TrpR (curves 4). In the presence of only CAP there was no change in the fluorescein signal (FIG. 17B, curve 2) whereas about 60% quenching of the 7-diethylaminocoumarin-3-carbox acid signal was observed (FIG. 17A, curve 2). […]

[2] = target: DNA; settings: sequence specific binding; cited from earlier work
[3] = target: CAP protein (Escherichia coli, UniProt P0ACJ8); settings: in the absence of cAMP
[4] = tested on: consensus CAP site split between CAP1/CAP4 and CAP2/CAP3 duplexes; assay: CAP detection by fluorescence quenching, fluorescein/dabcyl-labeled half-site duplexes; format: binding, E. coli
Source text: A 38 bp DNA sequence corresponding to a consensus CAP site (Ebright, R. H., Ebright, Y. W. & Gunasakera, A. Nucleic Acids Res. 17, 10295–10305, 1989) was used as a basis for designing oligonucleotides necessary for preparing the CAP assay reagents according to the scheme illustrated in FIG. 1A. FIG. 3 illustrates the details of the design used. The following four oligonucleotides were synthesized using standard phosphoramidate automated oligonucleotide synthesis (F=dT-fluorescein; D=dT-dabcyl):
The fluorescence donor (fluorescein) and the fluorescence acceptor (dabcyl) were introduced into DNA fragments using commercially available dT-fluorescein and dT-dabcyl (Glen Research, Sterling, Va.) , wherein dT stands for deoxythymidine. […] The fractions containing the oligonucleotides were dried in a vacuum centrifuge concentrator and subsequently dissolved in 50 μl of water. […] The CAP1 oligonucleotide (SEQ ID NO:1) was hybridized with CAP4 oligonucleotide (SEQ ID NO:4) to generate the CAP1/CAP4 duplex and CAP2 oligonucleotide (SEQ ID NO:2) was hybridized with CAP3 oligonucleotide (SEQ ID NO:3) to generate the CAP2/CAP3 duplex. […] The excitation wavelength was at 490 nm and the emission was recorded from 500 to 650 nm.
FIG. 4B illustrates changes in fluorescence observed upon the addition of CAP protein. The spectrum of 50 nM of the CAP1/CAP4 duplex and 50 nM of the CAP2/CAP3 duplex was recorded (curve 1). CAP protein was added at 75 nM and after 15 minutes of incubation the spectrum was recorded (curve 2). A major quenching of fluorescence of approximately 50% of the control signal intensity was observed, which is consistent with the prediction that in the presence of CAP protein the association between the CAP1/CAP4 and CAP2/CAP3 duplexes is facilitated and that the fluorescein (fluorescent donor) present in the CAP2/CAP3 duplex is brought into close proximity to the dabcyl (fluorescent acceptor) present in the CAP1/CAP4 duplex, which results in the quenching of fluorescence emission due to FRET between the fluorescein and dabcyl.
FIG. 6 illustrates the change in fluorescence observed upon addition of increasing amounts of CAP protein in the assay. The experiments were performed under the same conditions as those for the experiment described above and in FIG. 4. Fluorescence quenching increased proportionally with the increase of CAP concentration until a saturation of the signal occurred at ˜150 nM protein.
The kinetics of CAP induced fluorescence quenching was also studied to determine the time required for completion of the assay (FIG. 7). […] At the time indicated by the arrow in FIG. 7, 100 nM CAP protein was added and monitoring of the fluorescence signal was resumed.

B1: CAP: bacterial transcription activator from E. coli which binds DNA in a sequence specific, cAMP-dependent manner (protein, UniProt P0ACJ8 2-210, looked up)
DNA-binding transcriptional …: VLGKPQTDPTLEWFLSHCHIHKYPSKSTLIHQGEKAETLYYIVKGSVAVLIKDEEGKEMILSYLNQGDFIGELGLFEEGQERSAWVRAKTACEVAEISYKKFRQLIQVNPDILMRLSAQMARRLQVTSEKVGNLAFLDVTGRIAQTLLNLAKQPDAMTHPDGMQIKITRQEIGQIVGCSRETVGRILKMLEDQNLISAHGKTIVVYGTR
quenching of the fluorescein signal [1]: no change | Kd [2]: ~0.1 nM | CAP binding to the CAP1/CAP4 and CAP2/CAP3 DNA duplex [3]: No detectable binding | protein concentration at saturation of the quenching signal ([4]; 50 nM duplexes): ~150 nM | quenching of fluorescence ([4]; 75 nM CAP, 15 minutes, 50 nM of each duplex, 200 μM cAMP): approximately 50% | time for the reaction to go to completion ([4]; 100 nM CAP, emission 520 nm): approximately 15 minutes | change in fluorescence upon addition of CAP ([4]; in the absence of cAMP): No change in fluorescence; also recorded: does not produce a change in fluorescence signal intensity
